US20200181277A1 (Genmab, published 2020)
Substitutions are numbered along the chain they refer to. Numbers in names are those of the source. One block for each binder: values may come before it.

Columns and labels:
purified human C1q [1] = target: T1, purified human C1q (human, UniProt P02745 23-245; P02746 28-253; P02747 29-245); assay: C1q binding ELISA: plate coated with 1 µg/mL antibody, purified C1q titrated 0.010-30 µg/mL; SD 0.8, n 3
T1 construct: Purified C1q, Quidel Cat # A400; multimer of A, B and C chains
Procedure: (§1) A binding ELISA was performed to evaluate the effect of different substitutions on C1q binding. […] Plates were washed and blocked for 1 hour at RT with 200 μL/well 0.5×PBS supplemented with 0.025% Tween 20 and 0.1% gelatin while shaking. […] The reaction was stopped by the addition of 100 μL 2% oxalic acid. Absorbance was measured at 405 nm in a BioTek EL808 Microplate Reader (BioSPX). Log transformed data were analyzed by fitting sigmoidal dose-response curves with variable slope using GraphPad Prism software.

purified human C1q [2] = target: T1, purified human C1q; assay: C1q binding ELISA: plate coated with 1 µg/mL antibody, purified C1q titrated 0.010-30 µg/mL; SD 0.1, n 3
Procedure: as §1

purified human C1q [3] = target: T1, purified human C1q; assay: C1q binding ELISA (Example 6): plate coated with 1 µg/mL antibody, purified C1q titrated; SD 3.9, n 3
Procedure: as §1

purified human C1q [4] = target: T1, purified human C1q; assay: C1q binding ELISA (Example 6): plate coated with 1 µg/mL antibody, purified C1q titrated; SD 0.1, n 3
Procedure: as §1

purified human C1q [5] = target: T1, purified human C1q; assay: C1q binding ELISA: plate coated with 1 µg/mL antibody, purified C1q titrated 0.010-30 µg/mL; SD 0.2, n 3
Procedure: as §1

human 4-1BB = human 4-1BB (human, UniProt Q07011 24-255); assay: cell-based or functional assay
human CD40 = human CD40 (human, UniProt P25942 21-277); assay: cell-based or functional assay
human CD40, sequence (P25942 21-277): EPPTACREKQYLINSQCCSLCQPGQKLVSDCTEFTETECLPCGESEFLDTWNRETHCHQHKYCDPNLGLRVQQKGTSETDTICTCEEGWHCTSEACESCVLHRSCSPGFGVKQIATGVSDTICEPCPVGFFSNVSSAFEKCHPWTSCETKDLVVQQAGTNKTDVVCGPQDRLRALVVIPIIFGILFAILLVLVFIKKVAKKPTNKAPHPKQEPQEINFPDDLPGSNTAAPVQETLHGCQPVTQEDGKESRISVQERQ

human 4-1BB, sequence (Q07011 24-255): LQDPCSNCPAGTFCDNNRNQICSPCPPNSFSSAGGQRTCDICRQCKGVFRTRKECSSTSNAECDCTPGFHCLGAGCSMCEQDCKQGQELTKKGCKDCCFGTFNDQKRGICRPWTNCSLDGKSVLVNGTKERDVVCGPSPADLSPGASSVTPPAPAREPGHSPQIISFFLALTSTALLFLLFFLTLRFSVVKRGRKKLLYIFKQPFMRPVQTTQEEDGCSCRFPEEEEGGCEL

EC50 (purified human C1q [2]): 0.6 µg/mL
B2: IgG1-hDR5-01-G56T-K326A/P396L/E430G (antibody)
heavy: EVQLQQSGAEVVKPGASVKLSCKASGFNIKDTFIHWVKQAPGQGLEWIGRIDPANTNTKYDPKFQGKATITTDTSSNTAYMELSSLRSEDTAVYYCVRGLYTYYFDYWGQGTLVTVSSASTKGPSVFPLAPSSKSTSGGTAALGCLVKDYFPEPVTVSWNSGALTSGVHTFPAVLQSSGLYSLSSVVTVPSSSLGTQTYICNVNHKPSNTKVDKRVEPKSCDKTHTCPPCPAPELLGGPSVFLFPPKPKDTLMISRTPEVTCVVVDVSHEDPEVKFNWYVDGVEVHNAKTKPREEQYNSTYRVVSVLTVLHQDWLNGKEYKCKVSNAALPAPIEKTISKAKGQPREPQVYTLPPSREEMTKNQVSLTCLVKGFYPSDIAVEWESNGQPENNYKTTPLVLDSDGSFFLYSKLTVDKSRWQQGNVFSCSVMHGALHNHYTQKSLSLSPGK
light: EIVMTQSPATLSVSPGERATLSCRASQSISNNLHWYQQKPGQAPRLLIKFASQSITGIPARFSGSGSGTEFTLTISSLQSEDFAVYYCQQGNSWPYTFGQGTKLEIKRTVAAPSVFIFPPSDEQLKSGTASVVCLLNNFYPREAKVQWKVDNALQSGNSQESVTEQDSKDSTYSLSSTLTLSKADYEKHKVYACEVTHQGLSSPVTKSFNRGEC
notes: IgG1,kappa

EC50 (purified human C1q [2]): 0.8 µg/mL
B4: IgG1-hDR5-01-G56T-K326A/E333A/E430G (antibody)
heavy: B2 heavy with E334A, L397P
light: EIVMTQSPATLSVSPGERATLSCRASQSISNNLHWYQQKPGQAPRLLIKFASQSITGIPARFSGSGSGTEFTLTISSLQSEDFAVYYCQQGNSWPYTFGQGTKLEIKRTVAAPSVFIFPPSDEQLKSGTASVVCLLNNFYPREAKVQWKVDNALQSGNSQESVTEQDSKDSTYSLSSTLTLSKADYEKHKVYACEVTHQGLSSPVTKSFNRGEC
notes: IgG1,kappa

EC50 (purified human C1q [5]): 1.3 µg/mL
B6: IgG1-hDR5-01-G56T-K326A/E333A/P396L/E430G (antibody)
heavy: B2 heavy with E334A
light: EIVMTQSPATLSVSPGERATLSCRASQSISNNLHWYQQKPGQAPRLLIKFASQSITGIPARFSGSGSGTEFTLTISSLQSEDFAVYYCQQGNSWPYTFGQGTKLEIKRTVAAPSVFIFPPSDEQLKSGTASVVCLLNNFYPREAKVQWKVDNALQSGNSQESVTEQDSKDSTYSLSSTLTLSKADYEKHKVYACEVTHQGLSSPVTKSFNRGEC
notes: IgG1,kappa

4-1BB signaling, luciferase reporter Jurkat cells, EC50 (human 4-1BB): 0.0329 µg/mL
B7: IgG1-BMS-663513-K326W/E333S/E430G (antibody, V domains shown)
VH: QVQLQQWGAGLLKPSETLSLTCAVYGGSFSGYYWSWIRQSPEKGLEWIGEINHGGYVTYNPSLESRVTISVDTSKNQFSLKLSSVTAADTAVYYCARDYGPGNYDWYFDLWGRGTLVTVSS
VL: EIVLTQSPATLSLSPGERATLSCRASQSVSSYLAWYQQKPGQAPRLLIYDASNRATGIPARFSGSGSGTDFTLTISSLEPEDFAVYYCQQRSNWPPALTFGGGTKVEIK

CD40 response, luciferase reporter cells, EC50 (human CD40): 0.187 µg/mL
B8: IgG1-CD40-CP870893 (antibody)
heavy: not shown
VL: DIQMTQSPSSVSASVGDRVTITCRASQGIYSWLAWYQQKPGKAPNLLIYTASTLQSGVPSRFSGSGSGTDFTLTISSLQPEDFATYYCQQANIFPLTFGGGTKVEIK

CD40 response, luciferase reporter cells, EC50 (human CD40): 3.36 µg/mL
B10: IgG1-CD40-SGN40 (antibody)
heavy: not shown
VL: DIQMTQSPSSLSASVGDRVTITCRSSQSLVHSNGNTFLHWYQQKPGKAPKLLIYTVSNRFSGVPSRFSGSGSGTDFTLTISSLQPEDFATYFCSQTTHVPWTFGQGTKVEIK

CD40 response, luciferase reporter cells, EC50 (human CD40): 0.018 µg/mL
B11: IgG1-CD40-SGN40-K326W/E333S/E430G (antibody)
heavy: EVQLVESGGGLVQPGGSLRLSCAASGYSFTGYYIHWVRQAPGKGLEWVARVIPNAGGTSYNQKFKGRFTLSVDNSKNTAYLQMNSLRAEDTAVYYCAREGIYWWGQGTLVTVSSASTKGPSVFPLAPSSKSTSGGTAALGCLVKDYFPEPVTVSWNSGALTSGVHTFPAVLQSSGLYSLSSVVTVPSSSLGTQTYICNVNHKPSNTKVDKRVEPKSCDKTHTCPPCPAPELLGGPSVFLFPPKPKDTLMISRTPEVTCVVVDVSHEDPEVKFNWYVDGVEVHNAKTKPREEQYNSTYRVVSVLTVLHQDWLNGKEYKCKVSNWALPAPISKTISKAKGQPREPQVYTLPPSREEMTKNQVSLTCLVKGFYPSDIAVEWESNGQPENNYKTTPPVLDSDGSFFLYSKLTVDKSRWQQGNVFSCSVMHGALHNHYTQKSLSLSPGK
VL: B10 VL

The remaining lines, values behind:

B1: IgG1-hDR5-01-G56T-E333A/P396L/E430G (antibody)
heavy: B2 heavy with A327K, E334A
light: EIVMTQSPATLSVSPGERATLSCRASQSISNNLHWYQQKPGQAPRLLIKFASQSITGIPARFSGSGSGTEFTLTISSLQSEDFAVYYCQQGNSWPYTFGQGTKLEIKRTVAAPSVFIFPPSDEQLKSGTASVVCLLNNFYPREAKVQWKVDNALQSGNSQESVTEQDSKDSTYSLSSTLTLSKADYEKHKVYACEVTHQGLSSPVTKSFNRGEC
notes: IgG1,kappa
EC50 (purified human C1q [1]): 1.9 µg/mL

B3: IgG113F-hDR5-01-G56T-E430G (antibody)
heavy: B2 heavy with K275Q, N277K, Y301F, A327K, A340T, N385S, K393N, L397P, V398M, V423I
light: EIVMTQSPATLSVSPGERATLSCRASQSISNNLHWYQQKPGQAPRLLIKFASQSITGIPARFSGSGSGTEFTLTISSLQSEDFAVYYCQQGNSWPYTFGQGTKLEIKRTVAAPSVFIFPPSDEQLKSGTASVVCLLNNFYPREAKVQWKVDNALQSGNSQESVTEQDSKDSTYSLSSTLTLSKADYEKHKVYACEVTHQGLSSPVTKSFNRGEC
notes: also called IgG113F-E430G
EC50 (purified human C1q [3]): 11.4 µg/mL

B5: IgG1-hDR5-01-G56T-S267E/H268F/S324T/E430G (antibody)
heavy: B2 heavy with S268E, H269F, S325T, A327K, L397P
light: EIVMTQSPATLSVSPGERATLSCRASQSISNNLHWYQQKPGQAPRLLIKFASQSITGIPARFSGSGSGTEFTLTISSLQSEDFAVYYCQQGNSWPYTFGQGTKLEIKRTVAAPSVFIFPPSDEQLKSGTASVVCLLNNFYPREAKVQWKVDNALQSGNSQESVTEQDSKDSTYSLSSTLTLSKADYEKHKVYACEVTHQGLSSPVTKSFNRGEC
notes: IgG1,kappa
EC50 (purified human C1q [4]): 0.5 µg/mL

B9: IgG1-CD40-CP870893-K326W/E333S/E430G (antibody)
heavy: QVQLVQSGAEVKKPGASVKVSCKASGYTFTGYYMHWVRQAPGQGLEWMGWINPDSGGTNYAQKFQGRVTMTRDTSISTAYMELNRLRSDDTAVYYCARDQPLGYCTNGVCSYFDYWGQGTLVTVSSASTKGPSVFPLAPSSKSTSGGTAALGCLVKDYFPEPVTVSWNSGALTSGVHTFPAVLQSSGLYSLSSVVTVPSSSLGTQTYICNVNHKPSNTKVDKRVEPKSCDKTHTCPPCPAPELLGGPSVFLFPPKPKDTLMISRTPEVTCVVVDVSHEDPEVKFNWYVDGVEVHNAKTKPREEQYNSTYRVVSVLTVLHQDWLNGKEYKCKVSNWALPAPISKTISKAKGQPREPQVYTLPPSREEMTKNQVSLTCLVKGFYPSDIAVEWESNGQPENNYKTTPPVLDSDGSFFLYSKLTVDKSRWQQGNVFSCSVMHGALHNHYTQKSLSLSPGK
VL: B8 VL
CD40 response, luciferase reporter cells, EC50 (human CD40): 0.0459 µg/mL

B12: IgG1-CD40-SGN40-E430G (antibody)
heavy: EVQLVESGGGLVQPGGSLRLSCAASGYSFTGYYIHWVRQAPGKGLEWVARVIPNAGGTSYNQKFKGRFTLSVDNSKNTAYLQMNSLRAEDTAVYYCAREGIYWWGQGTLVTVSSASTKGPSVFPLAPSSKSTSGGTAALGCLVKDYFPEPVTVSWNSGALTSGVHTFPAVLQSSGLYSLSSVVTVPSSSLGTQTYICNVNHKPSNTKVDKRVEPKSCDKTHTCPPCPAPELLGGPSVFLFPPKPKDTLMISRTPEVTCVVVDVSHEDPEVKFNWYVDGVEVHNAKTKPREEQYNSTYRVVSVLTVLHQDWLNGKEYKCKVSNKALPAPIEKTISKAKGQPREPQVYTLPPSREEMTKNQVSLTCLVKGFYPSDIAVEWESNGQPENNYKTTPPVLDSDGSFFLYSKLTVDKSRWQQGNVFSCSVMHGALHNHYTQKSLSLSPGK
VL: B10 VL
CD40 response, luciferase reporter cells, EC50 (human CD40): 0.336 µg/mL
